Values quoted from earlier work in patent US4183849A, “Therapeutic insulin preparation and a process for the production of a stable insulin preparation with protracted effect” (Nordisk Insulinlaboratorium, priority 1975, dated 1980).

Settings: impurities of recrystallized insulin, stated as known

proinsulin
antigenicity: highly antigenic
